Assay results reported in patent publication US10053447B2, “Fluorescent compounds” (Pierce Biotechnology, Inc, priority 2010, dated 2018).

Experiments:
[1] = Storage stability at 50° C. under argon; type: physicochemical
Description: (§1) The inventive compounds were evaluated for stability. All compounds were packed under argon in plastic vials. The vials sere sealed with a drying pad in an aluminium coated pouch, and then stored at 50° C. for seven days. The results of the stability study for selected compounds are shown below:
Purity was determined based on ester activity.
as §1, with “stability compared to commercial dyes.” for “stability.”, “argon as 1 mg portions” for “argon”, “14” for “seven”
The inventive compound 755 Compound 1 (isomer 1)-NHS was evaluated for stability. The compound was packed under argon in plastic vials. The vials sere sealed with a drying pad in an aluminium coated pouch, and then stored at 50° C. for 14 days. Purity was determined by HPLC before and after storage.

U2OS cells; A550 cells = assay: Immunofluorescence cell based assays, summary statements; design: species or system human; conditions: GAM and GAR conjugates
Description: The inventive compounds and commercial dye were evaluated for immunofluorescence in cell based assays using the following protocol. Plates containing U2OS cells (human osteosarcoma cell line) were fixed in 4% paraformaldehyde in PBS/0.1% Triton X-100 for 15 min at room temperature. The cells were then permeabilized with 2% BSA in PBS/0.1% Triton X-100 for 30 min at room temperature. Diluted primary antibodies in PBS/0.1% Triton X-100 were added to the plates and incubated overnight at 4° C. The plates were washed 3×100 μl with PBS. Based on the calculated protein concentrations, the conjugates were diluted to 4 μg/ml (1:250 from 1 mg/ml stock) in PBS/0.1% Triton X-100 and added to the plates (50 μl/well) and incubated 1 h in the dark at room temperature. The plates were washed 3×100 μl with PBS. One hundred μl of 2 μg/ml Hoechst dye in PBS was added per well. The plates were then scanned on an ArrayScan® Plate Reader for imaging and quantitation.
The inventive compounds and commercial dyes were evaluated for immunofluorescence in cell based assays using the following protocol. Plates containing A550 cells (adenocarcinoma human alveolar basal epithelial cells, P5, Sep. 23, 2010) and stored at −80° C. were placed at 50° C. for 30 min. The storage buffer (PBS) was removed and then the cells were permeabilized for 15 min (100 μl/well) with 0.1% Triton-X100 in 1×PBS buffer. The plates were blocked for 30 min in 2% BSA in 1×PBS-0.1% Triton-X100 and then incubated with primary antibodies diluted in 2% BSA in 1×PBS, 0.1% Trion-X100, overnight at 4° C. […] The remaining wells were incubated in blocking buffer only (no primary antibody). After overnight incubation, the antibody solution was removed from the wells, and the plates were washed with PBS-Tween (2×100 μl/well). The labeled secondary antibody conjugates, diluted to 4 μg/ml in PBS were added to corresponding wells and incubated for 1 h at room temperature (about 20° C. to about 22° C.). The plates were washed 3×100 μl/well with PBS and Hoechst stain diluted 1 μg/ml in PBS were added to each well (100 μl/well) of each plate. The plates were then scanned on the Thermo Scientific ArrayScan® HCS Reader for imaging and quantitation.

streptavidin (SA) = streptavidin (SA) (Streptomyces avidinii, UniProt P22629); assay: Labeling efficiency (degree of labeling, mole dye to mole protein ratio) of streptavidin; conditions: for Compound/Protein SA in PBS purified by PDRR / Compound/Protein SA in PBS purified by gel filtration: PBS pH 7.2; for Compound/Protein SA in PBS purified by PDRR / Compound/Protein SA in PBS purified by gel filtration / Compound/Protein SA in borate purified by gel PDRR / Compound/Protein SA in borate purified by gel filtration: molar excess given in the label; for Compound/Protein SA in borate purified by gel PDRR / Compound/Protein SA in borate purified by gel filtration: borate buffer pH 8.5
Description: Inventive and commercial compounds, each as the NHS ester, were conjugated to goat anti-mouse (GAM), goat anti-rabbit (GAR) antibodies, and streptavidin (SA). GAM, GAR, and SA, at 10 mg/ml in phosphate buffered saline (PBS), were dialyzed against 50 mM borate buffer, pH 8.5. The compounds were reconstituted in dimethylformamide (DMF) at 10 mg/ml and combined at 2×, 4×, 5×, 7.5×, or 10× molar excess with GAM, GAR, or SA for 2 h at room temperature to label the antibodies or SA.
The labeled compounds, also termed dyes or labels, were subjected to PDDR to remove the unlabeled (free) compound; 100 μl of the packed resin was used per mg of protein purified. The purified antibody-labeled dyes were then diluted 1:50 in PBS and scanned for absorbance from 700 nm to 230 nm to determine the protein concentration, and to determine the mole dye to mole protein ratio. Each conjugate was diluted 1:10 in 50% glycerol and heated in the presence of 10 mM dithiothreitol (DTT) for 5 min at 95° C., then separated by electrophoresis on polyacrylamide gels in the presence of sodium dodecyl sulfate (SDS-PAGE). The gels were scanned using the Typhoon 9400 Imager to verify removal of the unconjugated compound. Labeling efficiency was compared, with results showing degree of labeling below.
Compounds 1, 2, and 3, each as the NHS ester, and DyLight 649-NHS were conjugated to goat anti-mouse (GAM) and goat anti-rabbit (GAR) antibodies. GAM and GAR, at a concentration of 10 mg/ml in phosphate buffered saline (PBS), were dialyzed against 50 mM borate buffer, pH 8.5. The compounds were reconstituted in dimethylformamide (DMF) at 10 mg/ml. To label the antibodies, the compounds were added at 2.5× molar excess and 5× molar excess for 2 h at room temperature. Streptavidin (SA) was reconstituted in PBS buffer, pH 7.2, and 50 mM borate buffer, pH 8.5, and labeled with 2.5× molar excess and 4× molar excess of the compound.
The antibody-labeled compounds, also termed dyes or labels, were subjected to gel filtration chromatography (15 cm×0.8 cm columns) or to the PDDR to remove the unlabeled (free) compound; 100 μl of the packed resin was used per mg of protein purified. The purified antibody-labeled dyes were then diluted 1:100 in PBS and scanned for absorbance from 700 nm to 230 nm to determine the protein concentration, and to determine the mole dye to mole protein ratio. Each conjugate was diluted 1:10 in 50% glycerol and heated in the presence of 10 mM dithiothreitol (DTT) for 5 min at 95° C., then separated by electrophoresis on polyacrylamide gels in the presence of sodium dodecyl sulfate (SDS-PAGE). The gels were scanned using the Typhoon 9400 Imager to verify removal of the unconjugated compound. Labeling efficiency was compared using labeling of the compounds to GAM antibody at a 2.5× molar excess of compound, with results shown below.
Labeling efficiency was also compared using labeling of the dyes to streptavidin (SA) at either a 2.5 fold or a 4 fold molar excess of the dye, with SA in PBS, pH 7.2, and borate buffer, pH 8.5.
650 Compound 1 (isomer 2)-TFP, 650 Compound 1 (isomer 1)-TFP, 650 Compound 1 (isomer 2)-TFP, 650 Compound 1-NHS, and DyLight 649-NHS were conjugated to GAM, GAR, and SA. GAM and GAR, at a concentration of 10 mg/ml in phosphate buffered saline (PBS), were dialyzed against 50 mM borate buffer, pH 8.5. The compounds were reconstituted in dimethylformamide (DMF) at 10 mg/ml and used to label antibodies at 5× molar excess of compound for two hours at room temperature to label the antibodies. SA was reconstituted in 50 mM borate buffer, pH 8.5, and combined with 4× molar excess to label the SA.
The antibody-conjugated and SA-conjugated compounds, also termed dyes or labels, were subjected to the PDDR to remove the unlabeled (free) compound. The purified antibodies and SA were then diluted 1:25 in PBS and scanned for absorbance from 700 nm to 230 nm to determine the protein concentration, and to determine the mole dye to mole protein ratio. […]

[2] = Spectral properties of the dyes compared with commercially available dyes; type: physicochemical; conditions: reactive ester form of the dye
[3] = unit size 1 mg, 50° C. for seven days, purity based on ester activity
[4] = amount 1 mg, 50° C. for 14 days (650 series)

Purity at day 1 [1, 3] [%]	Purity at day 7 [1, 3] [%]	Molecule	Compound/Protein SA in PBS purified by PDRR (streptavidin (SA))	Compound/Protein SA in PBS purified by gel filtration (streptavidin (SA))	Compound/Protein SA in borate purified by gel PDRR (streptavidin (SA))	Compound/Protein SA in borate purified by gel filtration (streptavidin (SA))	other results
98	97	COCCN1/C(=C/C=C/C2=[N+](CCCCCC(=O)NCCN3C(=O)C=CC3=O)c3ccc(S(=O)(=O)[O-])cc3C2(C)CCCS(=O)(=O)O)C(C)(CCCS(=O)(=O)O)c2cc(S(=O)(=O)O)ccc21 (single isomer, unassigned) [550 Compound 1(isomer 2)-maleimide]					
		COCCN1/C(=C/C=C/C2=[N+](CCCCCC(=O)O)c3ccc(S(=O)(=O)[O-])cc3C2(C)CCCS(=O)(=O)O)C(C)(CCCS(=O)(=O)O)c2cc(S(=O)(=O)O)ccc21 (stereo not shown) [550 Compound 1, 2-{(E)-3-[1-(5-carboxypentyl)-3-methyl-5-sulfo-3-(3-sulfopropyl)-1,3-dihydro-indol-(2E)-ylidene]-propenyl}-1-(2-methoxy-ethyl)-3-methyl-5-sulfo-3-(3-sulfo-propyl)-3H-indolium]					Immunofluorescence performance of conjugates compared with commercial DyLight dye (U2OS cells; A550 cells): at least similar performance to DyLight 549 conjugates (GAM, GAR), and in some cases superior performance
		Alexa 647-SA-(2.5X): Alexa 647 conjugated to streptavidin (SA) [reference compound]	3.5	3.9	2.4	2.6	Compound/Protein SA in borate purified by gel PDRR (streptavidin (SA); listed as Alexa647-SA-4X): 3.4; Compound/Protein SA in borate purified by gel filtration (streptavidin (SA); listed as Alexa647-SA-4X): 3.9
		DyLight 649-SA (2.5X): DyLight 649 conjugated to streptavidin (SA); suffix gives molar excess of dye [reference compound]	2.6	3.5	2.2	2.3	Compound/Protein SA in borate purified by gel PDRR (streptavidin (SA); listed as DyLight 649-SA-4X): 2.9; Compound/Protein SA in borate purified by gel filtration (streptavidin (SA); listed as DyLight 649-SA-4X): 3.5
		COCCN1/C(=C/C=C/C=C/C2=[N+](CCCCCC(=O)Oc3c(F)c(F)cc(F)c3F)c3ccc(S(=O)(=O)[O-])cc3C2(C)CCCS(=O)(=O)O)C(C)(CCCS(=O)(=O)O)c2cc(S(=O)(=O)O)ccc21 (single isomer, unassigned) [650 Compound 1 (isomer 2)-TFP]					SA (4X) Average (mole dye to mole protein ratio) (streptavidin (SA); TFP or NHS ester, 4X molar excess, borate buffer pH 8.5, PDRR): 2.42
99	97	COCCN1/C(=C/C=C/C2=[N+](CCCCCC(=O)NCCN3C(=O)C=CC3=O)c3ccc(S(=O)(=O)[O-])cc3C2(C)CCCS(=O)(=O)O)C(C)(CCCS(=O)(=O)O)c2cc(S(=O)(=O)O)ccc21 (single isomer, unassigned) [550 Compound 1(isomer 1)-maleimide]					
		COCCN1/C(=C/C=C/C=C/C2=[N+](CCCCCC(=O)Oc3c(F)c(F)cc(F)c3F)c3ccc(S(=O)(=O)[O-])cc3C2(C)CCCS(=O)(=O)O)C(C)(CCCS(=O)(=O)O)c2cc(S(=O)(=O)O)ccc21 (stereo not shown) [650 Compound 1-TFP]					Purity at day 1 [1, 4]: 98%; Purity at day 14 [1, 4]: 97%; Emission (Em) [2]: 672 nm; Excitation (Ex) [2]: 654 nm; ε [2]: 250,000 M−1cm−1
97	96	COCCN1/C(=C/C=C/C2=[N+](CCCCCC(=O)Oc3c(F)c(F)cc(F)c3F)c3ccc(S(=O)(=O)[O-])cc3C2(C)CCCS(=O)(=O)O)C(C)(CCCS(=O)(=O)O)c2cc(S(=O)(=O)O)ccc21 (single isomer, unassigned) [550 Compound 1 (isomer 1)-TFP]					
		Cy5-SA (2.5X): Cy5 conjugated to streptavidin (SA) [reference compound]	3.8	4.2	2.0	2.3	Compound/Protein SA in borate purified by gel PDRR (streptavidin (SA); listed as Cy5-SA-4X): 3.3; Compound/Protein SA in borate purified by gel filtration (streptavidin (SA); listed as Cy5-SA-4X): 3.8
